Experimental data from US20100291155A1, “ALLERGY VACCINE COMPOSITION FOR MUCOSAL ADMINISTRATION” (ALK-Abello A/S, priority 2008, published 2010).
“Also recorded” adds a separate entry of the source.

Columns and labels:
nDer p 1 [1] = molecular target: T1, nDer p 1 (Dermatophagoides pteronyssinus, UniProt P08176); test: Proteolytic activity of purified nDer p 1 pools in presence or absence of E64 (Z-LLE-AMC substrate); format: biochemical, D. pteronyssinus; details: for enzymatic activity of Der p 1 pool: DTT as reducing agent, absence of E64, 0.1 mM Z-LLE-AMC, 37° C.
T1 construct: Der p 1 has only been found in its mature form in the D. pteronyssinus faecal particles; from tissue; host or cells: D. pteronyssinus mite material
T1 sequence (P08176 99-320): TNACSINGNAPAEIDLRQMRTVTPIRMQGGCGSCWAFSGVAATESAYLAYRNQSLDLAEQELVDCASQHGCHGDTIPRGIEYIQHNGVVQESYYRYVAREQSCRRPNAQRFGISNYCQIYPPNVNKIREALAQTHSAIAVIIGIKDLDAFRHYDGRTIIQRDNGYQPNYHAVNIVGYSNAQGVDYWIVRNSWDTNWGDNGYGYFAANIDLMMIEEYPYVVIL
Protocol: (§1) The enzymatic activity of nDer p 1 was evaluated using the peptide substrate Z-LLE linked to the fluorescent group AMC. […] When Der p 1 is added, it cleaves the bond between AMC and the peptide sequence and the fluorescence increases considerably. Therefore the product formation was evaluated in terms of increase in fluorescence.
(§2) All activity assays were performed on a Spectra Max instrument (GeminiXS Molecular Devises) at a temperature of 37° C. The fluorescence was measured using an excitation wavelength (λex) of 350 nm and emission wavelength (λem) of 450 nm. The Spectra Max instrument was set to automix before the first read and in between reads. The enzymatic activity was measured in RFU, relative fluorescent units. Using the software SoftMax® PRO 4.3 LS, the initial velocity of the reaction (V0) was estimated from the maximal slope of the progress curve.
(§3) Stock solutions of assay buffer (50 mM Tris (Sigma), 5 mM EDTA (Fluka)) and 1 M DTT (Merck) were made once and kept at +5° C. and −20° C. respectively. DTT was kept in aliquots of 55 μl, and when necessary DTT was added to the assay buffer just before use.
(§4) The total volume applied for each well in the micro titer plate (Corning, 96-well non-binding black polystyrene plate) amounted to 200 μl. The reaction was always started by the addition of 50 μl of 0.1 mM or 1 mM substrate diluted in assay buffer, and the fluorescence was measured continuously for 20-90 minutes.
An enzymatic assay in the presence or absence of the cysteine protease specific inhibitor E64 was used in order to verify the identity of the purified protein as cysteine protease. One aliquot of nDer p 1 was pre-incubated for 1 hour at 37° C. with 25 μM E64 dissolved in assay buffer, while another aliquot was not. Afterwards the substrate was added at 0.1 mM concentration. The fluorescence was measured for 20 minutes. The concentration of nDer p 1 in the assay was 2.6 μM.

nDer p 1 [2] = molecular target: T1, nDer p 1; format: biochemical, D. pteronyssinus
Protocol: as §1, §2, §3, §4
It was tested whether glutathione (GSH) could activate nDer p 1, and whether the activation was dose-dependent. The activity of 1.3 μM nDer p 1 was determined in the presence of different GSH concentrations of 0.5 mM, 1.0 mM, 5.0 mM, 10.0 mM and 25.0 mM. As a control, the activity was also measured in the presence of 5 mM DTT. The fluorescence was measured for 90 minutes.

nDer p 1 [3] = molecular target: T1, nDer p 1; format: biochemical, D. pteronyssinus; remark: listed apart in the source
Protocol: as §1, §2, §3, §4
It was evaluated whether nDer p 8, as a glutathione S-transferase, could catalyse the activation of nDer p 1 by GSH. In this assay, nDer p1 was kept at 1.3 μM and the GSH concentration at 100 μM (physiological concentration in the airways). nDer p 8 was added at four different concentrations: 0.4 μM, 0.6 μM, 0.8 μM and 1.2 μM. The last two components to be added to the well were GSH quickly followed by the substrate. The reaction was followed during 90 minutes.

[4] = proteolytically active Der p 1 versus Der p 1 inactivated with E64, cited from earlier work
[5] = test system: confluent airway epithelial cells; details: in vitro, Wan et al. 1999; cited from earlier work
[6] = 0.1 mM GSH, nDer p 8 0.4-1.2 μM

CC(C)C[C@H](NC(=O)[C@H]1O[C@@H]1C(=O)O)C(=O)NCCCCN=C(N)N (relative stereo) [E64, L-trans-epoxysuccinyl-leucylamido(4-guanidino)butane, reference compound]
inhibition of nDer p 1 proteolytic activity (nDer p 1 [1]; 25 μM E64, pre-incubated 1 hour at 37° C., 2.6 μM nDer p 1): completely inhibited; also recorded: entirely inhibited

N[C@@H](CCC(=O)N[C@@H](CS)C(=O)NCC(=O)O)C(=O)O [GSH, Glutathione]
activation of nDer p 1 by GSH (nDer p 1 [2]; 1.3 μM nDer p 1, GSH 0.5-25.0 mM, 90 minutes): dose-dependent
time after which nDer p 1 activity evolves (nDer p 1 [2]; 5.0 mM GSH): approx. 8 minutes
time after which nDer p 1 activity boosts (nDer p 1 [2]; 10.0 mM GSH): 6 min
time after which nDer p 1 activity increases notably (nDer p 1 [2]; 25.0 mM): 3 min
correlation between initial velocity of nDer p 1 activity and GSH concentration (nDer p 1 [2]; FIG. 4): approximate linear correlation
lag time of nDer p 1 activation (time required to detect enzyme activity) (nDer p 1 [2]; GSH 0.1-0.5 mM (physiological concentrations in the airways)): around 30 minutes
speed of nDer p 1 activation compared with DTT (nDer p 1 [2]; control 5 mM DTT): slower than the activation by DTT
Der p 1 activity when activated by GSH (nDer p 1 [3]; 0.1 mM GSH, no Der p 8): very low
lag time of Der p 1 activation (nDer p 1 [3]; 0.1 mM GSH, no Der p 8): approximately 30 minutes

nDer p 8: glutathione S-transferase from Dermaphagoides pteronyssinus, 25589 Da, 219 amino acids
time until activity differentiated from the test without nDer p 8 (nDer p 1 [3]; 0.4 μM nDer p 8, 0.1 mM GSH): over 30 minutes
time after which activity increased (nDer p 1 [3]; 1.2 μM Der p 8, 0.1 mM GSH): approximately 8 minutes
velocity of the reaction at the end of the assay versus nDer p 8 concentration (nDer p 1 [3]; 0.1 mM GSH, FIG. 6): increases significantly
effect of Der p 8 on Der p 1 activity (activation by GSH) (nDer p 1 [3]; [6]): higher; also recorded: enhances the activation
effect of Der p 8 on lag time of Der p 1 activation (nDer p 1 [3]; [6]): shorter

B1: nDer p 1: major house dust mite allergen, a 25371 Da papain-like cysteine protease purified from D. pteronyssinus (protein, UniProt P08176 99-320, looked up)
Peptidase 1: T1 sequence (P08176 99-320)
nDer p 1 activity when GSH is absent (nDer p 1 [2]; no GSH): no activity
Der p 1 activity alone (nDer p 1 [3]; 1.3 μM nDer p 1, substrate present, no reducing agent): no activity
lung inflammation ([4]; mice): notably higher
total IgE level in the circulation ([4]; sensitized mice, intranasal): significantly higher
effect on intercellular tight junctions [5]: causes disruption of intercellular tight junctions

B2: Pool 2: second flow-through peak of nDer p 1 from the SBTI-agarose column (protein, UniProt P08176 99-320, looked up)
Peptidase 1: T1 sequence (P08176 99-320)
modifications: SBTI-agarose flow-through pool 2
enzymatic activity of Der p 1 pool (nDer p 1 [1]): did not show any activity
enzymatic activity of Der p 1 pool (nDer p 1 [1]; listed as second pool): did not show any significant activity

B3: nDer p 1 pool 1: first flow-through peak of nDer p 1 from the SBTI-agarose column (protein, UniProt P08176 99-320, looked up)
Peptidase 1: T1 sequence (P08176 99-320)
modifications: SBTI-agarose flow-through pool 1
enzymatic activity of Der p 1 pool (nDer p 1 [1]): there was activity
enzymatic activity of Der p 1 pool (nDer p 1 [1]; listed as first pool): clear activity
